PMC3591335
Read-outs that look alike come from different tables or passages of the source.

Tests used:
[1] = target: Cholera toxin B subunit expressed in E. coli (eCTB) (Vibrio cholerae) (UniProt P01556); assay: non-heat-denaturing SDS-PAGE
[2] = target: Cholera toxin B subunit expressed in E. coli (eCTB) (Vibrio cholerae) (UniProt P01556); assay: non-heat-denaturing SDS-PAGE; remark: listed apart in the source

“Cholera toxin B subunit expressed in E. coli (eCTB) (from UniProt P01556 22-124) (natural protein)” showed a stoichiometry N [1] of 5 and a stoichiometry N [2] of 10.
